T1: Flt4 extracellular domain with C-terminal 6×His tag (Flt4EC), baculovirus-produced (human, UniProt P35916 25-775)
T1 construct: extracellular domain; also called Flt4EC-Sepharose
T1 sequence: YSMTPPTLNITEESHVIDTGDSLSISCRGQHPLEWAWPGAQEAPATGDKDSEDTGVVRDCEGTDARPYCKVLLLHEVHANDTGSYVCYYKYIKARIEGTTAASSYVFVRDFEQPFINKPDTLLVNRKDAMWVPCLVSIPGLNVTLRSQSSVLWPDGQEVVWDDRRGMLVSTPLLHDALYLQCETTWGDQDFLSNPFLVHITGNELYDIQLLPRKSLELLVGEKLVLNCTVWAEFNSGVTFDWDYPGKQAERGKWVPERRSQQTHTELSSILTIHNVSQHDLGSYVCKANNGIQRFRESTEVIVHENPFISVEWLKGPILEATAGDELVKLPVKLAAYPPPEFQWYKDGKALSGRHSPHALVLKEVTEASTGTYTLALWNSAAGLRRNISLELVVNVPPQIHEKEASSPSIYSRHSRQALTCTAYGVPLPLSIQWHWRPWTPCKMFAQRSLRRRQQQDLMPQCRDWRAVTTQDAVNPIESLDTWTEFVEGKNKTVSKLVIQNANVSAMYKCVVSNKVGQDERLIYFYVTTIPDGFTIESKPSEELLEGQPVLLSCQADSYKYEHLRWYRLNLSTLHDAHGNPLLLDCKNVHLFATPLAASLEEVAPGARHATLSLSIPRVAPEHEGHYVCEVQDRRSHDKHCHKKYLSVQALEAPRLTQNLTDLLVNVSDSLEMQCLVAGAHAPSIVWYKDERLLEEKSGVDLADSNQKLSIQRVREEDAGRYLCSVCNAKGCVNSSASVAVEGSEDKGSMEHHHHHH

T2: VEGFR-3EC-Ig (seven Ig loops of the VEGFR-3 extracellular domain fused to an immunoglobulin heavy chain … (UniProt P35916 25-775, limits assumed))
T2 construct: domain: seven Ig loops of the extracellular domain; also called VEGFR-3EC domain; not shown: immunoglobulin heavy chain constant region, not specified
T2 sequence (looked up): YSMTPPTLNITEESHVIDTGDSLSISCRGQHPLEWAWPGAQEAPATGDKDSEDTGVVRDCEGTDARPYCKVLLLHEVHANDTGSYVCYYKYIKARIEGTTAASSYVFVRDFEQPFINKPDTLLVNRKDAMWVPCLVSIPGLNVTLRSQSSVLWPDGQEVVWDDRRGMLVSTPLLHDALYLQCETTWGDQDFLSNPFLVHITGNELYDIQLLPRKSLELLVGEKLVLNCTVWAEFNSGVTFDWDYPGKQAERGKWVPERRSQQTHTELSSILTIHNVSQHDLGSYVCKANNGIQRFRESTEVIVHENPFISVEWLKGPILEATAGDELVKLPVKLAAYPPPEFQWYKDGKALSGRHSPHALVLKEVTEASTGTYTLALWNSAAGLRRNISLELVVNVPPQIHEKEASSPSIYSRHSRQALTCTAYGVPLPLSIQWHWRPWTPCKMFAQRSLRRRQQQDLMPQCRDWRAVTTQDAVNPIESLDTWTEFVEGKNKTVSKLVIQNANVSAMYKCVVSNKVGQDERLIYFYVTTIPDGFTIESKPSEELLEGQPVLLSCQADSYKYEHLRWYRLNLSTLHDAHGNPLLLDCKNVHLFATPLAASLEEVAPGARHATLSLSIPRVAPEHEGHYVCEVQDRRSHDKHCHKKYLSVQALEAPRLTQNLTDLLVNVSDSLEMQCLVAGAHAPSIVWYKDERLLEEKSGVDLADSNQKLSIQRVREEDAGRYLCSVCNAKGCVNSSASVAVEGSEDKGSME


How the values were obtained:
[1] = target: T1, Flt4 extracellular domain with …; experiment: depletion of conditioned medium on Flt4EC-Sepharose
[2] = target: T3, Flt4 receptor tyrosine kinase (VEGFR-3) expressed on cells (human, UniProt P35916 25-1363); experiment: Scatchard analysis with 125I-labelled ligand
T3 construct: whole, on cells; also called LTRFlt4l; NIH 3T3-Flt4 cells
Protocol: (§1) To study receptor binding, PAE/VEGFR-2 and PAE/VEGFR-3 cells were seeded into 24-well tissue culture plates (Nunclon), which had been coated with 2% gelatin in PBS. […] The binding was allowed to proceed at room temperature for 90 minutes. The plates were then transferred onto ice and washed three times with ice-cold PBS containing 0.1% BSA. The cells were then lysed in 1 M NaOH, the lysates were collected, and the radioactivity was measured using a γ-counter.

[3] = target: T4, KDR (VEGFR-2) expressed on porcine aortic endothelial cells (UniProt P35968 20-1356, limits assumed); experiment: Scatchard analysis with 125I-labelled ligand
T4 construct: whole, on cells; also called KDR/Flk-1; PAE-KDR cells
T4 sequence (P35968 20-1356 limits assumed): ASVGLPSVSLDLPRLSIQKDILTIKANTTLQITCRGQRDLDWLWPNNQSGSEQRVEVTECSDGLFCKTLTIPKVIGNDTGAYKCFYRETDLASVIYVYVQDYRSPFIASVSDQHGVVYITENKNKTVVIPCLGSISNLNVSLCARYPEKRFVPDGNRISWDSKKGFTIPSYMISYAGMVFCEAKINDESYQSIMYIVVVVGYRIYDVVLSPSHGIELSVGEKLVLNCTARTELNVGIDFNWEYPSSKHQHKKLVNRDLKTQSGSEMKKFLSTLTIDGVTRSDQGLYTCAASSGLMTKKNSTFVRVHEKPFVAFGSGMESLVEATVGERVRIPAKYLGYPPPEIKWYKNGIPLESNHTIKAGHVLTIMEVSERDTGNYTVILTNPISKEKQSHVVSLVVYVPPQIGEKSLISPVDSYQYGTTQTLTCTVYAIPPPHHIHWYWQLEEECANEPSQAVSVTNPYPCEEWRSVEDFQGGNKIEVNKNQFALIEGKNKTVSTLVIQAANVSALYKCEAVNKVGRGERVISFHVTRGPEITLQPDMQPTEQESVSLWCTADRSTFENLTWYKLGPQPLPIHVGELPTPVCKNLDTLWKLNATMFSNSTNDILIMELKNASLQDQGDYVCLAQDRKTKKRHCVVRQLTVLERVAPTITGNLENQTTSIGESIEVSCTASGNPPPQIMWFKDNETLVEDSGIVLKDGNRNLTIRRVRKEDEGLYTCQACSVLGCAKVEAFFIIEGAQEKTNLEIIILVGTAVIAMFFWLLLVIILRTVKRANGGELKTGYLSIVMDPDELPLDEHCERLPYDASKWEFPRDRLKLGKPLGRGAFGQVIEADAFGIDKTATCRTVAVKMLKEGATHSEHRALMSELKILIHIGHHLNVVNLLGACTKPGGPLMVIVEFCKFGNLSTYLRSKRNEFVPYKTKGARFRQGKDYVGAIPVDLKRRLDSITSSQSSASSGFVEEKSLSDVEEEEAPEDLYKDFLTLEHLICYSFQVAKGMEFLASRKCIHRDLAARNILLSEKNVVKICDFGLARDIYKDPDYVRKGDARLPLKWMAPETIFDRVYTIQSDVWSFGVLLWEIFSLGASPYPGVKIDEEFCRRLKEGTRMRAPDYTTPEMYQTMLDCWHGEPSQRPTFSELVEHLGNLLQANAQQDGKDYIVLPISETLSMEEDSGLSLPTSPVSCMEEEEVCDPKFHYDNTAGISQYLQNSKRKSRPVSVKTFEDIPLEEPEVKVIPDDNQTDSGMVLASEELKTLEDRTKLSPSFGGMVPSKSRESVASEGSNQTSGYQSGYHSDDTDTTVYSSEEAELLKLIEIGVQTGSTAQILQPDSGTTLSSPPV
Protocol: as §1

[4] = target: the molecule itself; experiment: homodimer formation, chemical crosslinking
chemical crosslinking = target: the molecule itself; experiment: chemical crosslinking
[5] = target: T2, VEGFR-3EC-Ig (seven Ig loops of the …); experiment: receptor binding studies
[6] = target: T5, VEGFR-2EC-Ig (three Ig loops of the VEGFR-2 extracellular domain fused to an immunoglobulin heavy chain … (UniProt P35968 20-327, limits assumed)); experiment: receptor binding studies
T5 construct: domain: three Ig loops of the extracellular domain; also called VEGFR-2EC domain; not shown: immunoglobulin heavy chain constant region, not specified
T5 sequence (P35968 20-327 limits assumed): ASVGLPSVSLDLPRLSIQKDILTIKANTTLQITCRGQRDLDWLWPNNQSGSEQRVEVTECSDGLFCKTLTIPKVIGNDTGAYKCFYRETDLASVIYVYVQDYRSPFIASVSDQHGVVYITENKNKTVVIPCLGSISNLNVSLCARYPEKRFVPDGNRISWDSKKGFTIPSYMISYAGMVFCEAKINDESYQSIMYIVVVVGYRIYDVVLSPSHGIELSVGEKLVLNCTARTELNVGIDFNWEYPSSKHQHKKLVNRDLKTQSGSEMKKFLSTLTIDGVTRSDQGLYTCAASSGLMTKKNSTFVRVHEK

[7] = target: T5, VEGFR-2EC-Ig (three Ig loops of the …); experiment: pull-down of 35S-labelled protein with VEGFR-2EC-Ig
Protocol: An aliquot of the transfected cells were metabolically labelled for 6 hours with 100 microcuries/ml of the PRO-MIX™ L-[^35S] in vitro cell labelling mix (Amersham).

[8] = target: T4, KDR (VEGFR-2) expressed on porcine …; experiment: competition with 125I-VEGF-CΔNΔCHis on PAE/VEGFR-2 cells
Protocol: as §1

| binding result [5] | binding result [6] | binding result [8] | Binder | binding result [4] | binding result (chemical crosslinking) | further results |
| --- | --- | --- | --- | --- | --- | --- |
| no binding | no binding | – | VEGF-CΔNΔCHis C165S (ligand, also called C165S form) TEETIKFAAAHYNTEILKSIDNEWRKTQCMPREVCIDVGKEFGVATNTFFKPPCVSVYRCGGSCNSEGLQCMNTSTSYLSKTLFEITVPLSQGPKPVTISFANHTSCRCMSKLDVYRQVHSIIHHHHHH | – | no binding | – |
| – | – | no binding | VEGF-CΔNΔCHis C156S (ligand, also called VEGF-CΔNΔCH is R156S (as printed once); VEGF-C ΔNΔC156S) TEETIKFAAAHYNTEILKSIDNEWRKTQCMPREVCIDVGKEFGVATNTFFKPPSVSVYRCGGCCNSEGLQCMNTSTSYLSKTLFEITVPLSQGPKPVTISFANHTSCRCMSKLDVYRQVHSIIHHHHHH | binds | – | binding result [7]: no binding |

The next lines start with the binder.

| Binder | binding result [5] | binding result [6] | binding result [8] | binding result [4] | binding result (chemical crosslinking) | further results |
| --- | --- | --- | --- | --- | --- | --- |
| Flt4 ligand of about 23 kD from PC-3 cell conditioned medium (naturally processed VEGF-C) (ligand, also called 23 kD polypeptide; 21-23 kD form (PC-3)) TEETIKFAAAHYNTEILKSIDNEWRKTQCMPREVCIDVGKEFGVATNTFFKPPCVSVYRCGGCCNSEGLQCMNTSTSYLSKTLFEITVPLSQGPKPVTISFANHTSCRCMSKLDVYRQVHSIIRR | – | – | – | – | – | binding result [1]: binds |
| VEGF-C ΔNΔCHis (ligand, the yeast protein was iodinated as tracer; also called VEGF-C ΔCΔNHis; recombinantly-matured VEGF-C) TEETIKFAAAHYNTEILKSIDNEWRKTQCMPREVCIDVGKEFGVATNTFFKPPCVSVYRCGGCCNSEGLQCMNTSTSYLSKTLFEITVPLSQGPKPVTISFANHTSCRCMSKLDVYRQVHSIIHHHHHH | – | – | – | binds | – | Kd [2]: 0.135 nM; Kd [3]: 0.41 nM |
| VEGF-CΔNΔCHis C156,165S (ligand, also called C156,165S form) TEETIKFAAAHYNTEILKSIDNEWRKTQCMPREVCIDVGKEFGVATNTFFKPPSVSVYRCGGSCNSEGLQCMNTSTSYLSKTLFEITVPLSQGPKPVTISFANHTSCRCMSKLDVYRQVHSIIHHHHHH | no binding | no binding | – | – | no binding | – |
| VEGF-C R226,227S (ligand, The C-terminal cleavage site is destroyed; N-terminal processing may still occur; also called non-processed VEGF-C R226,227S) FESGLDLSDAEPDAGEATAYASKDLEEQLRSVSSVDELMTVLYPEYWKMYKCQLRKGGWQHNREQANLNSRTEETIKFAAAHYNTEILKSIDNEWRKTQCMPREVCIDVGKEFGVATNTFFKPPCVSVYRCGGCCNSEGLQCMNTSTSYLSKTLFEITVPLSQGPKPVTISFANHTSCRCMSKLDVYRQVHSIISSSLPATLPQCQAANKTCPTNYMWNNHICRCLAQEDFMFSSDAGDDSTDGFHDICGPNKELDEETCQCVCRAGLRPASCGPHKELDRNSCQCVCKNKLFPSQCGANREFDENTCQCVCKRTCPRNQPLNPGKCACECTESPQKCLLKGKKFHHQTCSCYRRPCTNRQKACEPGFSYSEEVCRCVPSYWKRPQMS | – | – | binds | – | – | – |

Source: patent US7423125
